Source: patent publication US20240002509A1

Biological target: human FcγR1A (human) (UniProt P12314)
Assay: SPR (Biacore T200), antibody amine-coupled on CM5 (~950 RU), receptor as analyte, 25 C

UniProt P12314, sequence (P12314 16-288 limits assumed): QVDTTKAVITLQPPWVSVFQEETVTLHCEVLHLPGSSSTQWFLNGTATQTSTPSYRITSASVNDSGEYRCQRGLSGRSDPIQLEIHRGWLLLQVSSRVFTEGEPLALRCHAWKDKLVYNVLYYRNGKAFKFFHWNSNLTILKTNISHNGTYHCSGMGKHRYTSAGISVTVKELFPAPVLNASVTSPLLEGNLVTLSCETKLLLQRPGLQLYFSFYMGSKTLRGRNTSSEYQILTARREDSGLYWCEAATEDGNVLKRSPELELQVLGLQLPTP

| Substance | Maximum response at 100 nM hFcgammaRIA (RU) |
| --- | --- |
| DANAPA-IgG1 (D265A/N297A/P329A) anti-CD3 antibody | 11 RU |
| GADAPASK-IgG1 (G237A/D265A/P329A/S267K) anti-CD3 antibody | 10 RU |
| LALAGA-IgG1 (L234A/L235A/G237A) anti-CD3 antibody | 15 RU |
| LALASKPA-IgG1 (L234A/L235A/S267K/P329A) anti-CD3 antibody | 9 RU |

Second part, the substance after the results:

| Maximum response at 100 nM hFcgammaRIA (RU) | Substance |
| --- | --- |
| 13 RU | DAPASK-IgG1 (D265A/P329A/S267K) anti-CD3 antibody |
| 16 RU | GADAPA-IgG1 (G237A/D265A/P329A) anti-CD3 antibody |
| 18 RU | LALAPG-IgG1 (L234A/L235A/P329G) anti-CD3 antibody |
